According to US7897569B2, “Use of HMGB fragments as anti-inflammatory agents” (The Feinstein Institute for Medical Research, priority 2001, dated 2011):
Marks after values point to notes of the source that are not given here.

Experiments:
[1] = test system: Balb/c mice subjected to CLP; test: Cecal ligation and puncture (CLP) sepsis survival; assay type: in vivo
Procedure: Cecal ligation and puncture (CLP) was performed as described previously (Fink and Heard, J. Surg. Res. 49:186-196, 1990; Wichmann et al., Crit. Care Med. 26:2078-2086, 1998; and Remick et al., Shock 4:89-95, 1995). Briefly, Balb/c mice were anesthetized with 75 mg/kg ketamine (Fort Dodge, Fort Dodge, Iowa) and 20 mg/kg of xylazine (Bohringer Ingelheim, St. Joseph, Mo.) intramuscularly. A midline incision was performed, and the cecum was isolated. A 6-0 prolene suture ligature was placed at a level 5.0 mm from the cecal tip away from the ileocecal valve.
The ligated cecal stump was then punctured once with a 22-gauge needle, without direct extrusion of stool. The cecum was then placed back into its normal intra-abdominal position. The abdomen was then closed with a running suture of 6-0 prolene in two layers, peritoneum and fascia separately to prevent leakage of fluid. All animals were resuscitated with a normal saline solution administered sub-cutaneously at 20 ml/kg of body weight. Each mouse received a subcutaneous injection of imipenem (0.5 mg/mouse) (Primaxin, Merck & Co., Inc., West Point, Pa.) 30 minutes after the surgery. Animals were then allowed to recuperate. Mortality was recorded for up to 1 week after the procedure; survivors were followed for 2 weeks to ensure no late mortalities had occurred.
To determine whether the HMGB1 A box can inhibit the lethality of HMGB1 during sepsis, mice were subjected to cecal perforation and treated by administration of A box beginning 24 hours after the onset of sepsis. CLP was performed on male Balb/c mice as described herein. Animals were randomly grouped, with 15-25 mice per group. The HMGB1 A box (60 or 600 μg/mouse each time) or vector (GST tag, 600 μg/mouse) alone was administered intraperitoneally twice daily for 3 days beginning 24 hours after CLP. Survival was monitored twice daily for up to 2 weeks to ensure no late death occurred. […]
Passive immunization of critically ill septic mice with anti-HMGB1 antibodies was also assessed. […] Survival was monitored for 2 weeks. […]

[2] = test system: D-galactosamine-sensitized Balb/c mice; test: Toxicity in D-galactosamine-sensitized Balb/c mice (survival); assay type: in vivo
Procedure: The D-galactosamine-sensitized model has been described previously (Galanos et al., Proc Natl. Acad. Sci. USA 76: 5939-5943, 1979; and Lehmann et al., J. Exp. Med. 165: 657-663, 1997). Mice were injected intraperitoneally with 20 mg D-galactosamine-HCL (Sigma)/mouse (in 200 μl PBS) and 0.1 or 1 mg of either HMGB1 B box or vector protein (in 200 μl PBS). Mortality was recorded daily for up to 72 hours after injection; survivors were followed for 2 weeks, and no later deaths from B box toxicity were observed.
To investigate whether the HMGB1 B box has cytokine activity in vivo, we administered HMGB1 B box protein to unanesthetized Balb/c mice sensitized with D-galactosamine (D-gal), a model that is widely used to study cytokine toxicity (Galanos et al., supra). Briefly, mice (20-25 gram, male, Harlan Sprague-Dawley, Indianapolis, Ind.) were intraperitoneally injected with D-gal (20 mg) (Sigma) and B box (0.1 mg/ml/mouse or 1 mg/ml/mouse) or GST tag (vector; 0.1 mg/ml/mouse or 1 mg/ml/mouse), as indicated in Table 1. Survival of the mice was monitored up to 7 days to ensure no late death occurred.

[3] = test system: C3H/HeJ mice; test: Lethality and histology in C3H/HeJ mice; assay type: in vivo
[4] = test system: RAW 264.7 cells; test: TNF mRNA expression in RAW 264.7 cells (RNase protection assay); assay type: cell-based, murine; conditions: 10 μg/ml
Procedure: The kinetics of B box-induced TNF release was also examined. TNF release and TNF mRNA expression was measured in RAW 264.7 cells induced by B box polypeptide or GST tag polypeptide only used as a control (vector) (10 μg/ml) for 0 to 48 hours. Supernatants were analyzed for TNF protein levels by an L929 cytotoxicity assay (N=3-5) as described herein. For mRNA measurement, cells were plated in 100 mm plate and treated in Opti-MEM I medium containing B box polypeptide or the vector alone for 0, 4, 8, or 24 hours, as indicated in FIG. 2D. The vector only sample was assayed at the 4 hour time point. Cells were scraped off the plate and total RNA was isolated by RNAzol B method in accordance with the manufacturer's instructions (Tel-Test “B”, Inc., Friendswood, Tex.). TNF (287 bp) was measured by RNase protection assay (Ambion, Austin, Tex.). Equal loading and the integrity of RNA was verified by ethidium bromide staining of the RNA sample on agarose-formaldehyde gel. […] TNF mRNA expression was maximal at 4 hours and decreased at 8 and 24 hours. […] A similar study was carried out measuring TNF protein released from RAW 264.7 cells 0, 4, 8, 24, 32 or 48 hours after administration of B box or vector only (GST tag), using the L929 cytotoxicity assay described herein. […] Data are representative of three separate experiments.

[5] = C3H/HeJ mice, 8 hours after administration

Molecule | clinical condition and outcome ([1]; 60 μg A box, CLP) | clinical condition ([1]; 600 μg/mouse A box, CLP) | survival ([1]; ip twice daily for 3 days beginning 24 hours after CLP) | Alive/total ([2]; 0.1 mg/mouse ip with D-gal 20 mg) | Alive/total ([2]; 1 mg/mouse ip with D-gal 20 mg) | lethality ([2]; D-galactosamine-sensitized mice) | time to death ([2]; instances in which death occurred) | lethality ([3]; C3H/HeJ mice (do not respond to endotoxin)) | histology of heart [3, 5] | histology of liver [3, 5] | histology of lung and kidney [3, 5] | time of maximal TNF mRNA expression [4] | TNF mRNA expression ([4]; 0-24 hours (vector at 4 hours))
A box: Human HMGB1 mutant containing only the A box, SEQ ID NO:21 (A box SEQ ID NO:22) (protein) MGKGDPKKPTGKMSSYAFFVQTCREEHKKKHPDASVNFSEFSKKCSERWKTMSAKEKGKFEDMAKADKARYEREMKTYIPPKGET | most died | significantly more alert, active, and to resume feeding behavior | 68% |  |  |  |  |  |  |  |  |  | 
B box: Human HMGB1 mutant containing only the B box, SEQ ID NO:20 (protein) FKDPNAPKRLPSAFFLFCSEYRPKIKGEHPGLSIGDVAKKLGEMWNNTAADDKQPYEKKAAKLKEKYEKDIAAY |  |  |  | 6/6 | 2/8* | lethal to D-galactosamine-sensitized mice in a dose-dependent manner | ≤ 12 h | lethal | evidence of ischemia with loss of cross striation | mild acute inflammatory responses | no abnormal morphologic changes | 4 h | increased significantly
